These results are taken from patent US20230025732A1 (INNATE PHARMA, published 2023).

As usually defined, the EC50 is the concentration needed to bring the measured effect to its halfway point. Read a high EC50 as lower potency in that assay. The EC50 (read off the curve) is the concentration at which the effect is half-maximal. Low values mean an effect from little substance, high ones a need for much substance.

Test [1] deals with T1, human CD39 expressed at the cell surface (human, UniProt P49961 1-510).
T1 sequence: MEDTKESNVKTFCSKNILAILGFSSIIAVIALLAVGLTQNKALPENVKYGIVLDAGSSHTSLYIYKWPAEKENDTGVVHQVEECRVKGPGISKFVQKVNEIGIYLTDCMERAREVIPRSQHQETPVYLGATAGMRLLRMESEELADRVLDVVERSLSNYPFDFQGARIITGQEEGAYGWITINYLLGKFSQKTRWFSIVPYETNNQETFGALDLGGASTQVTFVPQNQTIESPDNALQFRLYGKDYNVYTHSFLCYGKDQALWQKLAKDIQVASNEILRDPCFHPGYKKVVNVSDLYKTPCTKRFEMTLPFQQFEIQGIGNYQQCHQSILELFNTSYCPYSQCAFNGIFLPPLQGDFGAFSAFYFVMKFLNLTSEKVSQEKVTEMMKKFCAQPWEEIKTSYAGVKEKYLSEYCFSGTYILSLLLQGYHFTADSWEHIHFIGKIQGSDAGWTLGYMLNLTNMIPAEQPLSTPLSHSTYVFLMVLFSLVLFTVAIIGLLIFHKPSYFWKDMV
The experiment in a line: cell-based or functional assay.

In test [2] the target is T2, CD39-M2 extracellular domain recombinant protein (soluble recombinant human CD39 with M2 tag) (human, UniProt P49961 38-478, limits assumed).
T2 sequence: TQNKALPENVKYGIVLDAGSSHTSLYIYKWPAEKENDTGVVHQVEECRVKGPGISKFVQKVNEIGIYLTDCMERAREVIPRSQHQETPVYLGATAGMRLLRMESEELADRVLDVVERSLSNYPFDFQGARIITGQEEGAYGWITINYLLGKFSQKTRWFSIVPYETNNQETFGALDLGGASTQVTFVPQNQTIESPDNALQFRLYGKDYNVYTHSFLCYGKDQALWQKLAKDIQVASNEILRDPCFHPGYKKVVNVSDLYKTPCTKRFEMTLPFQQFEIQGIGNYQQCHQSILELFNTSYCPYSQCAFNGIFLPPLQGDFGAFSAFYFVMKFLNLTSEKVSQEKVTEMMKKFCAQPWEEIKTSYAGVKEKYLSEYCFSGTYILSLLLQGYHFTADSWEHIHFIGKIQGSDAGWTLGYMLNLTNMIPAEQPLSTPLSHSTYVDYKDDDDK
The experiment in a line: cell-based or functional assay.

Test [3] deals with T1, human CD39 expressed at the cell surface. As to the kind of experiment: flow cytometry, Ramos lymphoma cells, second set of experiments; Ramos cells, second set of experiments. The protocol:
(§1) Cells were incubated with various concentration of unlabeled anti-CD39 antibody from 30 μg/ml to 5×10⁻⁴ μg/ml, for 30 minutes at 4° C. After washes, cells were incubated with Goat anti-mouse H+L labeled secondary antibody for 30 min at 4° C.
For orientation: Flow cytometry measures light scatter and fluorescence of single cells or particles in a stream.

For test [4] the target is unchanged. The experiment in a line: flow cytometry titration on CHO cells expressing human CD39 (Mediane of Fluo), panel CHO-huCD39. Here is the method:
as §1

For the next test, the target named is T3, murine CD39 on CHO cells (murine, UniProt P55772 1-510).
T3 construct: whole, on cells; also called CHO-moCD39; moCD39
T3 sequence (looked up): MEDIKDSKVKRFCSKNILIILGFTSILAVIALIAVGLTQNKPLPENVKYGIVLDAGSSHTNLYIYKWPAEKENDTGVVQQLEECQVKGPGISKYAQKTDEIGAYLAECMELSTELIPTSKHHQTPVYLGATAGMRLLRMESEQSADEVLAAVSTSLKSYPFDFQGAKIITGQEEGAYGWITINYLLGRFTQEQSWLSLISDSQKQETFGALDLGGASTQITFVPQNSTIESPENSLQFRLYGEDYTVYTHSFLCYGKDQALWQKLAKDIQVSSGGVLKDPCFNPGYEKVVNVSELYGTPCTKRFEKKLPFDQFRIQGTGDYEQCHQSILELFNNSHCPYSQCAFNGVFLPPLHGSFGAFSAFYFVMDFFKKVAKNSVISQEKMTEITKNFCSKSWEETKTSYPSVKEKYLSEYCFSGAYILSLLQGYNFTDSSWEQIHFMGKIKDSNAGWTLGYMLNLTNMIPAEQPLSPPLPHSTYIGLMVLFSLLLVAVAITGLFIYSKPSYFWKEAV
The experiment in a line: flow cytometry titration on CHO cells expressing murine CD39 (Mediane of Fluo), panel CHO-moCD39. The protocol: as §1

In test [5] the target is T4, cynomolgus (Macaca fascicularis) CD39 on CHO cells (cynomolgus (Macaca fascicularis), UniProt A0A7N9DGH8 1-510).
T4 construct: whole, on cells; also called CHO-cyCD39; cyCD39
T4 sequence: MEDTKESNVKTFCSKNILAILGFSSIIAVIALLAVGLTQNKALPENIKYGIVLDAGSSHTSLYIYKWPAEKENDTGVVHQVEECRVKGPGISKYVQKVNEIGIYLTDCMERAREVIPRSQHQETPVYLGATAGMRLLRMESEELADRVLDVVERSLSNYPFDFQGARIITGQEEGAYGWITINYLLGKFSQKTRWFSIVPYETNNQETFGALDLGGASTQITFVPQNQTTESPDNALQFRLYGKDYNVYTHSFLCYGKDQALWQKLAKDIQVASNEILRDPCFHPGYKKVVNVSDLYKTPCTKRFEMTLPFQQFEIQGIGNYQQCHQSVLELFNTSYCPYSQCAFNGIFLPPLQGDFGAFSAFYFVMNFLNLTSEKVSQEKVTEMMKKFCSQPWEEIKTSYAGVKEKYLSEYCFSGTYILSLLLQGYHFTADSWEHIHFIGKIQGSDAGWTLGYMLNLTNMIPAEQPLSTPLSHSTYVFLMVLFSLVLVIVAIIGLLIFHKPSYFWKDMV
As to the kind of experiment: flow cytometry titration on CHO cells expressing cynomolgus CD39 (Mediane of Fluo), panel CHO-cyCD39. The protocol: as §1

B1: I-394 (antibody, human IgG1, V domains shown)
VH: EVQLQQSGPELVKPGASVKMSCKASGYTFTDYNMHWVKQSHGRTLEWIGYIVPLNGGSTFNQKFKGRATLTVNTSSRTAYMELRSLTSEDSAAYYCARGGTRFAYWGQGTLVTVSA
VL: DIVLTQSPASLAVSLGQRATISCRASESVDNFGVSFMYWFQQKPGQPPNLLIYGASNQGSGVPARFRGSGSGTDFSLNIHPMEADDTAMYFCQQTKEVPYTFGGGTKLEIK
B1: the “IC50, inhibition of CD39 ATPase activity in Ramos cells” value in test [1] stood at 0.05 µg/mL. For the same molecule, in test [2], the “IC50, inhibition of ATPase activity of soluble CD39” value is 0.003 µg/mL. The molecule further yielded an EC50 in test [3] of 0.19 µg/mL. Besides, the concentration for a half-maximal effect (EC50 (read off the curve)) in test [4] was ~0.2 µg/mL; in test [5], ~0.4 µg/mL. Besides, the binding result in the test with murine CD39 on CHO cells was “no binding (tested: about 30 µg/ml)”.
